This experiment deals with ILT2 (immunoglobulin-like transcript 2)/CD85j (human (endogenous in peripheral blood CD4+ T cells)) (UniProt Q8NHL6).
Chain of UniProt Q8NHL6 (Q8NHL6 24-650): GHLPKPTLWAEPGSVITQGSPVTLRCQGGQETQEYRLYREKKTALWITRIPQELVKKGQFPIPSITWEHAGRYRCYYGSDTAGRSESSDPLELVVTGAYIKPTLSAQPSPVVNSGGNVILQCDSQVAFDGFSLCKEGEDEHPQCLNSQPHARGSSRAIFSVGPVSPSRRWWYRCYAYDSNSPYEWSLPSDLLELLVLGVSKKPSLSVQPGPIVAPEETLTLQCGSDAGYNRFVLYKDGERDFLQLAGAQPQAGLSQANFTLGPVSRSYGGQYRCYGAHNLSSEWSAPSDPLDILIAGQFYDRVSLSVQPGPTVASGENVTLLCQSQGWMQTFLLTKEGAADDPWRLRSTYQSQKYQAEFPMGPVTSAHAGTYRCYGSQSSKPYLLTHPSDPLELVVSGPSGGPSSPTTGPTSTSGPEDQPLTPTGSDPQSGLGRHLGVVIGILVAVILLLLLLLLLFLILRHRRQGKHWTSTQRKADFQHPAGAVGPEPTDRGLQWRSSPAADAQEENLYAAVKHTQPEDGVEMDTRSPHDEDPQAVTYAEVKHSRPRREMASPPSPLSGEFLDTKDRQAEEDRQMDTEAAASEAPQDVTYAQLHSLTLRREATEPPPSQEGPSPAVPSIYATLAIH

For the substance “soluble HLA-G (recombinant HLA-G1/G5 protein) (from UniProt P17693 25-308; P61769 21-119) (complex)”, the % of inhibition of CXCR3 expression (flow cytometry) by sHLA-G on anti-CD3 stimulated CD4+ T cells, with blocking anti-ILT2/CD85j mAb (clone #292319, 1 ug/10^6 cells) added stood at 31.5% and the % of inhibition of CXCR3 expression (flow cytometry) by sHLA-G on anti-CD3 stimulated CD4+ T cells, with isotype-matched control mAb added (reference for the anti-ILT2 blocking) was 47.5%.

The values above are taken from publication PMC2909260.
